{"source": "the supplement of paper PMC11316812", "key": {"MCF7": {"tested_on": "MCF7", "test": "percentage of EdU-negative (G0-arrested) nuclei per well, 72 h; higher = more G0 arrest", "details": "reference: sequence is the full UniProt precursor, the tested protein was the secreted form or ectodomain"}, "hTERT-HMEC": {"tested_on": "hTERT-HMEC", "test": "percentage of EdU-negative (G0-arrested) nuclei per well, 72 h; higher = more G0 arrest", "details": "reference: sequence is the full UniProt precursor, the tested protein was the secreted form or ectodomain"}, "[1]": {"details": "protein concentration 0.0225 µM"}, "[2]": {"details": "protein concentration 0.02425 µM"}, "[3]": {"details": "protein concentration 0.2425 µM"}, "[4]": {"details": "protein concentration 0.03125 µM"}, "[5]": {"details": "protein concentration 0.3125 µM"}, "[6]": {"details": "protein concentration 0.0165 µM"}, "[7]": {"details": "protein concentration 0.023405 µM"}, "[8]": {"details": "protein concentration 0.23405 µM"}, "[9]": {"details": "protein concentration 0.0257143 µM"}, "[10]": {"details": "protein concentration 0.257143 µM"}, "[11]": {"details": "protein concentration 0.016015 µM"}, "[12]": {"details": "protein concentration 0.16015 µM"}}, "note": "± gives the standard deviation of the averaged measurements.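 Also: secreted proteins added to cultured cells, EdU pulse at the end, nuclei found by Hoechst imaging, EdU status from nuclear versus surrounding ring intensity ratio, PBS as neutral control.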", "data": [{"sequence": "MKTGHFEIVTMLLATMILVDIFQVKAEVLDMADNAFDDEYLKCTDRMEIKYVPQLLKEEKASHQQLDTVWENAKAKWAARKTQIFLPMNFKDNHGIALMAYISEAQEQTPFYHLFSEAVKMAGQSREDYIYGFQFKAFHFYLTRALQLLRKPCEASSKTVVYRTSQGTSFTFGGLNQARFGHFTLAYSAKPQAANDQLTVLSIYTCLGVDIENFLDKESERITLIPLNEVFQVSQEGAGNNLILQSINKTCSHYECAFLGGLKTENCIENLEYFQPIYVYNPGEKNQKLEDHSEKNWKLEDHGEKNQKLEDHGVKILEPTQIPGMKIPEPFPLPEDKSQGNINNPTPGPVPVPGPKSHPSASSGKLLLPQFGMVIILISVSAINLFVAL", "values": [{"measurement": "percentage of EdU-negative", "setting": "MCF7; [1]", "result": "24.99 ± 0.071", "unit": "%"}, {"measurement": "percentage of EdU-negative", "setting": "MCF7; protein concentration 0.225 µM", "result": "27.3 ± 1.4", "unit": "%"}, {"measurement": "percentage of EdU-negative", "setting": "hTERT-HMEC; [1]", "result": "4.51 ± 0.24", "unit": "%"}, {"measurement": "percentage of EdU-negative", "setting": "hTERT-HMEC; protein concentration 0.225 µM", "result": "5.22 ± 0.84", "unit": "%"}]}, {"sequence": "MKTLAGLVLGLVIFDAAVTAPTLESINYDSETYDATLEDLDNLYNYENIPVDKVEIEIATVMPSGNRELLTPPPQPEKAQEEEEEEESTPRLIDGSSPQEPEFTGVLGPHTNEDFPTCLLCTCISTTVYCDDHELDAIPPLPKNTAYFYSRFNRIKKINKNDFASLSDLKRIDLTSNLISEIDEDAFRKLPQLRELVLRDNKIRQLPELPTTLTFIDISNNRLGRKGIKQEAFKDMYDLHHLYLTDNNLDHIPLPLPENLRALHLQNNNILEMHEDTFCNVKNLTYIRKALEDIRLDGNPINLSKTPQAYMCLPRLPVGSLV", "values": [{"measurement": "percentage of EdU-negative", "setting": "MCF7; [2]", "result": "23.5 ± 1", "unit": "%"}, {"measurement": "percentage of EdU-negative", "setting": "MCF7; [3]", "result": "26.2 ± 2.6", "unit": "%"}, {"measurement": "percentage of EdU-negative", "setting": "hTERT-HMEC; [2]", "result": "4.4 ± 0.046", "unit": "%"}, {"measurement": "percentage of EdU-negative", "setting": "hTERT-HMEC; [3]", "result": "6.32 ± 0.2", "unit": "%"}]}, {"sequence": "MKTLFLGVTLGLAAALSFTLEEEDITGTWYVKAMVVDKDFPEDRRPRKVSPVKVTALGGGNLEATFTFMREDRCIQKKILMRKTEEPGKFSAYGGRKLIYLQELPGTDDYVFYCKDQRRGGLRYMGKLVGRNPNTNLEALEEFKKLVQHKGLSEEDIFMPLQTGSCVLEH [Q9NY56]", "values": [{"measurement": "percentage of EdU-negative", "setting": "MCF7; [4]", "result": "25.1 ± 0.74", "unit": "%"}, {"measurement": "percentage of EdU-negative", "setting": "MCF7; [5]", "result": "25.7 ± 0.44", "unit": "%"}, {"measurement": "percentage of EdU-negative", "setting": "hTERT-HMEC; [4]", "result": "5 ± 0.88", "unit": "%"}, {"measurement": "percentage of EdU-negative", "setting": "hTERT-HMEC; [5]", "result": "6.83 ± 0.95", "unit": "%"}]}, {"sequence": "MKTLLLLAVIMIFGLLQAHGNLVNFHRMIKLTTGKEAALSYGFYGCHCGVGGRGSPKDATDRCCVTHDCCYKRLEKRGCGTKFLSYKFSNSGSRITCAKQDSCRSQLCECDKAAATCFARNKTTYNKKYQYYSNKHCRGSTPRC", "values": [{"measurement": "percentage of EdU-negative", "setting": "MCF7; [6]", "result": "25.3 ± 2.7", "unit": "%"}, {"measurement": "percentage of EdU-negative", "setting": "MCF7; protein concentration 0.165 µM", "result": "29.2 ± 0.99", "unit": "%"}, {"measurement": "percentage of EdU-negative", "setting": "hTERT-HMEC; [6]", "result": "4.75 ± 0.11", "unit": "%"}, {"measurement": "percentage of EdU-negative", "setting": "hTERT-HMEC; protein concentration 0.165 µM", "result": "6.7 ± 0.9", "unit": "%"}]}, {"sequence": "MKTLQFFFLFCCWKAICCNSCELTNITIAIEKEECRFCISINTTWCAGYCYTRDLVYKDPARPKIQKTCTFKELVYETVRVPGCAHHADSLYTYPVATQCHCGKCDSDSTDCTVRGLGPSYCSFGEMKE", "values": [{"measurement": "percentage of EdU-negative", "setting": "MCF7; [4]", "result": "25.3 ± 0.9", "unit": "%"}, {"measurement": "percentage of EdU-negative", "setting": "MCF7; [5]", "result": "26.6 ± 1.5", "unit": "%"}, {"measurement": "percentage of EdU-negative", "setting": "hTERT-HMEC; [4]", "result": "5.26 ± 0.36", "unit": "%"}, {"measurement": "percentage of EdU-negative", "setting": "hTERT-HMEC; [5]", "result": "4.61 ± 0.34", "unit": "%"}]}, {"sequence": "MKTPWKVLLGLLGAAALVTIITVPVVLLNKGTDDATADSRKTYTLTDYLKNTYRLKLYSLRWISDHEYLYKQENNILVFNAEYGNSSVFLENSTFDEFGHSINDYSISPDGQFILLEYNYVKQWRHSYTASYDIYDLNKRQLITEERIPNNTQWVTWSPVGHKLAYVWNNDIYVKIEPNLPSYRITWTGKEDIIYNGITDWVYEEEVFSAYSALWWSPNGTFLAYAQFNDTEVPLIEYSFYSDESLQYPKTVRVPYPKAGAVNPTVKFFVVNTDSLSSVTNATSIQITAPASMLIGDHYLCDVTWATQERISLQWLRRIQNYSVMDICDYDESSGRWNCLVARQHIEMSTTGWVGRFRPSEPHFTLDGNSFYKIISNEEGYRHICYFQIDKKDCTFITKGTWEVIGIEALTSDYLYYISNEYKGMPGGRNLYKIQLSDYTKVTCLSCELNPERCQYYSVSFSKEAKYYQLRCSGPGLPLYTLHSSVNDKGLRVLEDNSALDKMLQNVQMPSKKLDFIILNETKFWYQMILPPHFDKSKKYPLLLDVYAGPCSQKADTVFRLNWATYLASTENIIVASFDGRGSGYQGDKIMHAINRRLGTFEVEDQIEAARQFSKMGFVDNKRIAIWGWSYGGYVTSMVLGSGSGVFKCGIAVAPVSRWEYYDSVYTERYMGLPTPEDNLDHYRNSTVMSRAENFKQVEYLLIHGTADDNVHFQQSAQISKALVDVGVDFQAMWYTDEDHGIASSTAHQHIYTHMSHFIKQCFSLP", "values": [{"measurement": "percentage of EdU-negative", "setting": "MCF7; protein concentration 0.009 µM", "result": "24.2 ± 0.48", "unit": "%"}, {"measurement": "percentage of EdU-negative", "setting": "MCF7; [7]", "result": "24.2 ± 0.77", "unit": "%"}, {"measurement": "percentage of EdU-negative", "setting": "MCF7; protein concentration 0.09 µM", "result": "26.5 ± 0.49", "unit": "%"}, {"measurement": "percentage of EdU-negative", "setting": "MCF7; [8]", "result": "29.2 ± 1.1", "unit": "%"}, {"measurement": "percentage of EdU-negative", "setting": "hTERT-HMEC; protein concentration 0.009 µM", "result": "4.55 ± 0.2", "unit": "%"}, {"measurement": "percentage of EdU-negative", "setting": "hTERT-HMEC; [7]", "result": "5.17 ± 1.7", "unit": "%"}, {"measurement": "percentage of EdU-negative", "setting": "hTERT-HMEC; protein concentration 0.09 µM", "result": "6.07 ± 0.24", "unit": "%"}, {"measurement": "percentage of EdU-negative", "setting": "hTERT-HMEC; [8]", "result": "6.28 ± 0.073", "unit": "%"}]}, {"sequence": "MKVLLCDLLLLSLFSSVFSSCQRDCLTCQEKLHPALDSFDLEVCILECEEKVFPSPLWTPCTKVMARSSWQLSPAAPEHVAAALYQPRASEMQHLRRMPRVRSLFQEQEEPEPGMEEAGEMEQKQLQKRFGGFTGARKSARKLANQKRFSEFMRQYLVLSMQSSQRRRTLHQNGNV", "values": [{"measurement": "percentage of EdU-negative", "setting": "MCF7; [9]", "result": "24.9 ± 0.7", "unit": "%"}, {"measurement": "percentage of EdU-negative", "setting": "MCF7; [10]", "result": "27.5 ± 0.28", "unit": "%"}, {"measurement": "percentage of EdU-negative", "setting": "hTERT-HMEC; [9]", "result": "4.77 ± 0.15", "unit": "%"}, {"measurement": "percentage of EdU-negative", "setting": "hTERT-HMEC; [10]", "result": "5.6 ± 0.068", "unit": "%"}]}, {"sequence": "MKVLLRLICFIALLISSLEADKCKEREEKIILVSSANEIDVRPCPLNPNEHKGTITWYKDDSKTPVSTEQASRIHQHKEKLWFVPAKVEDSGHYYCVVRNSSYCLRIKISAKFVENEPNLCYNAQAIFKQKLPVAGDGGLVCPYMEFFKNENNELPKLQWYKDCKPLLLDNIHFSGVKDRLIVMNVAEKHRGNYTCHASYTYLGKQYPITRVIEFITLEENKPTRPVIVSPANETMEVDLGSQIQLICNVTGQLSDIAYWKWNGSVIDEDDPVLGEDYYSVENPANKRRSTLITVLNISEIESRFYKHPFTCFAKNTHGIDAAYIQLIYPVTNFQKHMIGICVTLTVIIVCSVFIYKIFKIDIVLWYRDSCYDFLPIKASDGKTYDAYILYPKTVGEGSTSDCDIFVFKVLPEVLEKQCGYKLFIYGRDDYVGEDIVEVINENVKKSRRLIIILVRETSGFSWLGGSSEEQIAMYNALVQDGIKVVLLELEKIQDYEKMPESIKFIKQKHGAIRWSGDFTQGPQSAKTRFWKNVRYHMPVQRRSPSSKHQLLSPATKEKLQREAHVPLG", "values": [{"measurement": "percentage of EdU-negative", "setting": "MCF7; [11]", "result": "25.8 ± 1.6", "unit": "%"}, {"measurement": "percentage of EdU-negative", "setting": "MCF7; [12]", "result": "26.2 ± 0.51", "unit": "%"}, {"measurement": "percentage of EdU-negative", "setting": "hTERT-HMEC; [11]", "result": "4.76 ± 0.26", "unit": "%"}, {"measurement": "percentage of EdU-negative", "setting": "hTERT-HMEC; [12]", "result": "5.92 ± 0.43", "unit": "%"}]}]}
